Results on six molecules are retold here after PMC7036363, “Analysis of HrpG regulons and HrpG‐interacting proteins by ChIP‐seq and affinity proteomics in Xanthomonas campestris”.

Series [1] deals with HrpG (Xanthomonas campestris pv. campestris 8004) (UniProt Q8PBF6). The series is described as follows: MST. To be noted: MST: 50 mM Tris-HCl pH 7.4, 150 mM NaCl, 10 mM MgCl2, 0.05% Tween-20; EMSA: 10 mM Tris-HCl pH 7.5, 50 mM KCl, 1 mM DTT, 50 ng poly(dI:dC), 0-40 uM protein …. A general note: In EMSA bound probe runs differently from free probe, usually more slowly.
In series [2] the target is recombinant HUXcc-His6 (Xanthomonas campestris pv. campestris). Kind of series: MST; HUXcc labelled with NT-647 (RED-NHS kit), purified HrpG titrated from 0.001 to 17 μM in a 1:1 series dilution; 1 x MST buffer (50 mM Tris, 150 mM NaCl, 10 mM MgCl2, pH 6) with 0.05% Tween; Monolith NT.115, standard treated capillaries; KD-Fit function.
The target of another series is HrpG (Xanthomonas campestris pv. campestris …, UniProt Q8PBF6 1-262). The series is described as follows: MST; 10 mM MgCl2; MST: 50 mM Tris-HCl pH 7.4, 150 mM NaCl, 10 mM MgCl2, 0.05% Tween-20; EMSA: 10 mM Tris-HCl pH 7.5, 50 mM KCl, 1 mM DTT, 50 ng poly(dI:dC), 0-40 uM protein, 28 C 30 min. To be noted: protein: recombinant; text writes HrpG-His6; chain copies: 2; label: 5'-FAM; blunt.

In series [1], hpa2p MST fragment yielded an equilibrium dissociation constant (Kd) of 2220 nM.

For hrpEp MST fragment, the Kd in series [1] is 2300 nM.

In series [1], hrcUp MST fragment yielded a Kd of 1790 nM.

On to “HrpG-His6 recombinant protein (natural protein)”, for which the Kd in series [2] is 640 nM.

B1: Motif-2 (mutated HrpG motif probe) (dsDNA)
DNA 1: CTTCGAAGTGAGAACGGAATCCGGATCCGC
DNA 2: GCGGATCCGGATTCCGTTCTCACTTCGAAG
In the case of B1, the binding result with HrpG is given as “no binding”.

B2: Motif-1 (HrpG consensus motif probe) (dsDNA)
DNA 1: CTTCGAAGTGAGAAATTCTATTGGATCCGC
DNA 2: GCGGATCCAATAGAATTTCTCACTTCGAAG
Take B2: in the series with HrpG, the dissociation constant (Kd) worked out at 6960 ± 1440 nM.

The term Kd denotes the constant that tells how readily two partners part at equilibrium.
